Target: full-length GALLS (GALLS-FL) fused in frame with LexA in yeast bait vector pEG202 (pE3462)
Test: cell-based or functional assay

Q: “LSH10 (GIP, GALLS Interacting Protein; At2g42610) expressed from the yeast two-hybrid prey vector pGAD424 (from UniProt Q9S7R3 1-177)” was tested. Which β-galactosidase units (β-galactosidase units) did it give?
A: Its β-galactosidase units (β-galactosidase units) is 6.
